Results published in IntAct's records for PubMed 20627101.

B1: Induced myeloid leukemia cell differentiation protein Mcl-1 homolog (Mus musculus), P97287 (parent)
chain: MFGLRRNAVIGLNLYCGGASLGAGGGSPAGARLVAEEAKARREGGGEAALLPGARVVARPPPVGAEDPDVTASAERRLHKSPGLLAVPPEEMAASAAAAIVSPEEELDGCEPEAIGKRPAVLPLLERVSEAAKSSGADGSLPSTPPPPEEEEDDLYRQSLEIISRYLREQATGSKDSKPLGEAGAAGRRALETLRRVGDGVQRNHETAFQGMLRKLDIKNEGDVKSFSRVMVHVFKDGVTNWGRIVTLISFGAFVAKHLKSVNQESFIEPLAETITDVLVRTKRDWLVKQRGWDGFVEFFHVQDLEGGIRNVLLAFAGVAGVGAGLAYLIR

Variants of: B1
Details: with ch60_human HSPD1, P10809
Chain of ch60_human HSPD1, P10809 (P10809 whole entry): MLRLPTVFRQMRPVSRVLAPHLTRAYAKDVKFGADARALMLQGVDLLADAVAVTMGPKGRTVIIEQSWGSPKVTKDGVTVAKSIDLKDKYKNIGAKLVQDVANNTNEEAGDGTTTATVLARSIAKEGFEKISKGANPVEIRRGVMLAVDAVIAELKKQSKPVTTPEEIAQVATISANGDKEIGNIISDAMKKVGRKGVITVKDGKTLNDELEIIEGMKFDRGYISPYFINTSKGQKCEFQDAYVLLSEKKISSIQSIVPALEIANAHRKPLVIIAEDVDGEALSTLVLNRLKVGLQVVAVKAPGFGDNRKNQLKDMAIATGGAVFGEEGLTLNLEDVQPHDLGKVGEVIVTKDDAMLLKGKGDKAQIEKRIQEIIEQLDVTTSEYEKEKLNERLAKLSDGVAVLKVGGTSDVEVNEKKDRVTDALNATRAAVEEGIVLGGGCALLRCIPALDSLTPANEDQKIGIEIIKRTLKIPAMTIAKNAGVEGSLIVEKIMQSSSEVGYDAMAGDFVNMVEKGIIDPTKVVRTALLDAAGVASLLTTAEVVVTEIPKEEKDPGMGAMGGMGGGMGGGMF

Variant	effect of a mutation on the interaction
R5G	disrupting interaction
R6G	disrupting interaction
R32G	disrupting interaction
